Measurements: patent publication US20240190968A1 (HEFEI TG IMMUNOPHARMA, published 2024)

T1: B7H6 protein overexpressed in HL60 cells (human, UniProt Q68D85 25-454)
T1 construct: Full-length entry expressed from a lentiviral vector; also called HL60-B7H6
T1 sequence: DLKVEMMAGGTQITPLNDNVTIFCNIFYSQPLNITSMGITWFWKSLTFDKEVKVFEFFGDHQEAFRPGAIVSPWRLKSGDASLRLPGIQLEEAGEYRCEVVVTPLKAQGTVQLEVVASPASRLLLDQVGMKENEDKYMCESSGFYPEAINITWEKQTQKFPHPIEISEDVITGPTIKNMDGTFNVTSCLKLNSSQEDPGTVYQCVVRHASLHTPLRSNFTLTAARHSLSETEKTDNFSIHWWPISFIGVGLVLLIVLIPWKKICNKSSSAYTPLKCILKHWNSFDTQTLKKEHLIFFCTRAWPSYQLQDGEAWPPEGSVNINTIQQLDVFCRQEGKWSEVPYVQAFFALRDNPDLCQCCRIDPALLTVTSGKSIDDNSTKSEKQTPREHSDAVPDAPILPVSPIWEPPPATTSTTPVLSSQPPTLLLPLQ

B1: murine antibody 12G4 (antibody, mouse IgG2a, kappa, V domains shown)
VH: EVLLQQSGPEVVKPGASVKITCKASGYTFTDYNMDWVKQSHGKSLEWIGDINPNNGGTLYNQKFRGRVTLIVDKSSSTAYMELRSLTSDDTAVYYCARSEVFYGNYADYWGQGTTLTVSS
VL: DIVLTQSPVSLAVPLGQRATISCKASQSVDYDGDSYMNWYQQKPGQPPKLLIYAASTLHSGIPVRFSGSGSGTDFTLNIHPVEEEDAASYYCQQSKEDPRTFGGGTKLEIKR
notes: also called murine 12G4
B2: humanized antibody h12F5 (antibody, human IgG1, kappa, V domains shown)
VH: EVQLVQSGAEVKKPGASVKVSCKASGYTFTSYYMYWVRQAPGQGLEWIGEINPSNGGTNFNEKFKSRVTLTVDKSISTAYMELSRLRSDDTAVYYCTRTLYYGNDWYFDVWGQGTTVTVSS
VL: EIVLTQSPDFQSVTPKEKVTITCSASSSVNYMHWYQQKPDQSPKRLIYDTSKLASGVPSRFSGSGSGTDYTLTINSLEAEDAATYYCQQWSSNPVTFGQGTKLEIKR
notes: also called humanized 12F5
B3: humanized antibody h12G4 (antibody, human IgG1, kappa, V domains shown)
VH: EVQLVQSGAEVKKPGASVKVSCKASGYTFTDYNMDWVRQAPGKGLEWIGDINPNNGGTLYNQKFRGRVTLTVDKSISTAYMELSRLRSDDTAVYYCARSEVFYGNYADYWGQGTTVTVSS
VL: DIVLTQTPLSLSVTPGQPASISCKASQSVDYDGDSYMNWYLQKPGQPPQLLIYAASTLHSGVPDRFSGSGSGTDFTLKISRVEAEDVGVYYCQQSKEDPRTFGQGTKLEIKR
notes: also called humanized 12G4
B4: murine antibody 12F5 (antibody, mouse IgG2a, kappa, V domains shown)
VH: QVQLQQSGAELVKPGASVKLSCKASGYTFTSYYMYWVKQRPGQGLEWIGEINPSNGGTNFNEKFKSKATLTVDKSSSTAYMQLSSLTSEDSAVYYCTRTLYYGNDWYFDVWGAGTTVTVSS
VL: QIVLTQSPAIMSASPGEKVTMTCSASSSVNYMHWYQQKSGTSPKRWIYDTSKLASGVPARFSGSGSGTSYSLTISSMEAEDAATYYCQQWSSNPVTFGAGTKLELKR
notes: also called murine 12F5; B7H6 murine 12F5 antibody

Assays:
[1] = biological target: T2, recombinant B7H6 extracellular region Fc fusion protein (human); experiment: SPR, Biacore T200, B7H6-Fc amine-coupled to CM5 chip, antibody injected, 1:1 Langmuir model; murine 12G4
T2 construct: also called B7H6-Fc; B7H6-Fc fusion protein
Protocol: (§1) The Biacore method is widely-recognized as an objective method for detecting the mutual affinity and binding kinetics of proteins. The affinity and binding kinetics of the B7H6 antibody of the present disclosure are analyzed and characterized through Biacore T200.
(§2) The B7H6 extracellular segment Fc fusion protein (B7H6-Fc) was covalently attached to a CM5 (GE) chip using standard amino coupling methods. A series of concentration gradients of B7H6 antibody diluted in PBS were then injected with each cycle and regenerated with 10 mM NaOH solution. The antigen-antibody binding kinetics were traced for 3 minutes and the dissociation kinetics were traced for 10 minutes, and the resulting data were analyzed by a 1:1 (Langmuir) binding model using GE's BIAevaluation software.

[2] = biological target: T2, recombinant B7H6 extracellular region …; experiment: ELISA, B7H6-Fc coated at 1 ug/mL, HRP anti-mouse secondary antibody, OD450
Protocol: The ELISA assay was used to detect the binding characteristics of the B7H6 antibody. The B7H6 extracellular region Fc fusion protein (B7H6-Fc) described above was coated into a 96-well plate. The signal strength after antibody addition was used to determine the binding characteristic of the antibody and B7H6.
The B7H6-Fc fusion protein (amino acid sequence as set forth in SEQ ID NO. 22) was diluted to 1 μg/mL with PBS buffer and added to a 96-well plate in a volume of 100 μL/well and left overnight at 4° C. The PBS buffer solution was sucked off from the 96-well plate. The plate was washed 6 times with PBST (pH 7.2, PBS containing 0.1% Tween 20) buffer solution. 200 μL/well PBS/10% BSA was added and incubated at 37° C. for 2 hours for blocking. The blocking solution was removed. The plate was washed 6 times with PBST. 100 μL/well B7H6 antibody to be tested was diluted to an appropriate concentration with PBST/0.05% BSA, and incubated at 37° C. for 1 h. The reaction system was removed. The plate was washed 6 times with PBST. HRP (horseradish peroxidase)-labeled anti-mouse antibody secondary antibody was diluted with PBST/0.05% BSA at 100 μL/well and incubated for 1 h at 37° ° C. The plate was washed 6 times with PBST and 80 μL/well TMB (tetramethylbenzidine) was added. […] The absorbance at […] was read with a microplate reader.

[3] = biological target: T1, B7H6 protein overexpressed in HL60 cells; experiment: flow cytometry on HL60-B7H6 cells, Alexa-647 goat anti-mouse secondary antibody, binding ratio (%)
Protocol: The flow cytometry assay was used to detect the binding characteristics of B7H6 antibody and to overexpress B7H6 protein (HL60-B7H6, SEQ ID NO. 21; SEQ ID NO. 54) in HL60 cells (ATCC NO. CCL-240). The expression vector is pLVX-EF1a-B7H6-IRES-ZsGreen, and the signal strength after antibody addition is used to determine the binding characteristics of the antibody and B7H6.
HL60-B7H6 cells were diluted to 2×10⁶/mL with PBS and were added to a 1.5 ml EP tube at 100 μL/tube. Goat serum at 10 μL/tube was added thereto and was blocked at 4° C. for 30 min. The B7H6 antibody was added at 1 μg/tube and incubated for 30 min at 4° C. The EP tube was added with 1 mL of PBS and centrifuged at 3500 rpm at 4° C. for 5 min. The supernatant was discarded and the precipitate was washed once more with PBS. After centrifugation, the supernatant was discarded, and the cells were resuspended with 100 μl/tube of PBS, and 0.1 μL/tube of goat anti-mouse antibody secondary antibody (Invitrogen) labeled with Alexa-647 was added thereto, and incubated at 4° C., under the condition of avoiding light, for 30 min. The cell-containing precipitate was washed twice with PBS and the supernatant was discarded after centrifugation. The cells were resuspended with 200 μL/tube of PBS and detected by flow cytometry.

[4] = biological target: T1, B7H6 protein overexpressed in HL60 cells; experiment: flow cytometry on HL60-B7H6 cells, Alexa-647 mouse anti-human IgG-Fc secondary antibody, binding ratio (%)
Protocol: The flow cytometry assay was used to detect the binding characteristics of the B7H6 antibody. The B7H6 protein (HL60-B7H6) was overexpressed in HL60 cells (ATCC No. CCL-240) (as shown in Example 3), and the signal strength after antibody addition was used to determine the binding characteristics of the antibody and B7H6.
HL60-B7H6 cells were diluted to 2×10⁶/mL with PBS and added to a 1.5 mL EP tube in a volume of 100 μL/tube. 10 μL/tube of mouse serum was added thereto and was blocked at 4° C. for 30 min. The humanized B7H6 antibody was added at 1 μg/tube and incubated for 30 min at 4° C. The EP tube was added with 1 mL of PBS and centrifuged at 3500 rpm at 4° C. for 5 min. The supernatant was discarded and the precipitate was washed once more with PBS. After centrifugation, the supernatant was discarded. The cells were resuspended with 100 μL/tube of PBS, 1 μL/tube of Alexa-647-labeled mouse anti-human IgG-Fc secondary antibody (Biolegend) was added thereto, and incubated at 4° C., under the condition of avoiding light, for 30 min. The cell-containing precipitate was washed twice with PBS and the supernatant was discarded after centrifugation. The cells were resuspended with 200 μL/tube of PBS and detected by flow cytometry.

[5] = biological target: T2, recombinant B7H6 extracellular region …; experiment: ELISA, B7H6-Fc coated at 1 ug/mL, HRP mouse anti-human IgG (Fab-specific) secondary antibody, OD450
Protocol: The ELISA assay was used to detect the binding characteristics of the humanized B7H6 antibody. The B7H6 extracellular region Fc fusion protein (B7H6-Fc) described above was coated into a 96-well plate. The signal strength after antibody addition was used to determine the binding characteristics of antibodies and B7H6.
The B7H6-Fc fusion protein (amino acid sequence as set forth in SEQ ID NO. 22) was diluted to 1 μg/mL with PBS buffer and added to a 96-well plate in a volume of 100 μL/well and left overnight at 4° C. The PBS buffer solution was sucked off from the 96-well plate. The plate was washed 6 times with PBST (pH 7.2, PBS containing 0.1% Tween 20) buffer solution. 200 μL/well PBS/10% BSA was added and incubated at 37° C. for 2 hours for blocking. The blocking solution was removed. The plate was washed 6 times with PBST. B7H6 antibody to be tested which diluted with PBST/0.05% BSA to an appropriate concentration was added at 100 µL/well, and incubated at 37° C. for 1 h. The reaction system was removed. The plate was washed 6 times with PBST. HRP (horseradish peroxidase)-labeled mouse anti-human IgG (Fab-specific) secondary antibody (Sigma) was diluted with PBST/0.05% BSA at 100 μL/well and incubated for 1 h at 37° C. The plate was washed 6 times with PBST, and 80 μL/well TMB (tetramethylbenzidine) was added. […] The absorbance at […] was read with a microplate reader.

[6] = biological target: T3, recombinant Cynomolgus monkey B7H6 extracellular region Fc fusion protein (Cynomolgus monkey); experiment: ELISA, cynoB7H6-Fc coated at 1 ug/mL, HRP mouse anti-human IgG (Fab-specific) secondary antibody, OD450
T3 construct: also called cynoB7H6-Fc; cynoB7H6-Fc fusion protein
Protocol: The ELISA assay was used to detect the binding characteristics of the humanized B7H6 antibody. The Cynomolgus monkey B7H6 extracellular Fc fusion protein (cynoB7H6-Fc) was coated into a 96-well plate. The signal strength after antibody addition was used to determine the binding characteristics of the antibody and monkey B7H6.
The cynoB7H6-Fc fusion protein (amino acid sequence as set forth in SEQ ID NO. 23) was diluted to 1 μg/mL with PBS buffer and added to a 96-well plate in a volume of 100 μL/well and left overnight at 4° C. The PBS buffer solution was sucked off from the 96-well plate. The plate was washed 6 times with PBST (pH 7.2, PBS containing 0.1% Tween 20) buffer solution. 200 μL/well of PBS/10% BSA was added and incubated at 37° C. for 2 hours for blocking. The blocking solution was removed. The plate was washed 6 times with PBST. B7H6 antibody to be tested which was diluted with PBST/0.05% BSA to an appropriate concentration was added at 100 µL/well, and incubated at 37° C. for 1 h. The reaction system was removed. The plate was washed 6 times with PBST. HRP (horseradish peroxidase)-labeled mouse anti-human IgG (Fab-specific) secondary antibody (Sigma) was diluted with PBST/0.05% BSA at 100 μL/well and incubated for 1 h at 37° C. […] The absorbance at […] was read with a microplate reader.

[7] = biological target: T2, recombinant B7H6 extracellular region …; experiment: SPR, Biacore T200, B7H6-Fc amine-coupled to CM5 chip, antibody injected, 1:1 Langmuir model; murine 12F5
Protocol: as §1, §2

T3 sequence (chain, as listed by the source limits assumed): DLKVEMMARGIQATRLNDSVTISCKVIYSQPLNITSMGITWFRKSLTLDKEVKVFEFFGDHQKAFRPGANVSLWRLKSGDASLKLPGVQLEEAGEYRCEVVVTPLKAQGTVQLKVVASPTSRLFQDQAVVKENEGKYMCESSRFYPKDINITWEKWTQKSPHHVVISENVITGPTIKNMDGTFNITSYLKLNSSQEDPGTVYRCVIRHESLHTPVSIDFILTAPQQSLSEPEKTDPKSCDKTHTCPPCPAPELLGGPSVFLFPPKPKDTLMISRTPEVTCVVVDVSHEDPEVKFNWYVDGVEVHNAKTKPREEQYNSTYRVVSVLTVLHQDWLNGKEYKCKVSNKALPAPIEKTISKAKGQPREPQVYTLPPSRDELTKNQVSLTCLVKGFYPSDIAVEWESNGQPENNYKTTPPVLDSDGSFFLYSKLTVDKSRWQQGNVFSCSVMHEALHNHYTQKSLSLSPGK

Binder | Kd [1] [nM] | EC50 (read off the curve) [2] [µg/mL] | EC50 (read off the curve) [3] [µg/mL] | EC50 (read off the curve) [4] [µg/mL] | EC50 (read off the curve) [5] [µg/mL] | binding result [6] | Kd [7] [nM]
B1 | 0.15 | ~0.03 | ~0.01 | – | – | – | –
B2 | – | – | – | ~0.03 | ~0.02 | – | –
B3 | – | – | – | ~0.05 | ~0.05 | binds | –
B4 | – | ~0.03 | ~0.006 | – | – | – | 2.2
